Measurements taken from patent US20060270591A1, “Androgen receptor coregulators” (priority 2002, published 2006).

Tested on: AR
Assay: AR transactivation reporter gene assay (CAT/Luc) in prostate cancer cell lines (Example 2)
Format: cell-based, human
Method: 394. The human prostate cancer cell lines, LNCaP, PC-3, and DU145, were maintained in Dulbecco's minimum essential medium (DMEM) containing 5% fetal calf serum (FCS). Transfections using the calcium phosphate precipitation method and chloramphenicol acetyltransferase (CAT) and luciferase (Luc) assays were performed as previously described (Miyamoto et al. (1998) Proc. Natl. Acad. Sci. U.S.A. 95, 7379-7384; Yeh et al. (1999) Endocrine 11, 195-202; Miyamoto et al. (1998) Proc. Natl. Acad. Sci. U.S.A. 95, 11083-11088). Briefly, 1-4×10^5 cells were plated on 35-mm or 60-mm dishes 24 h before adding the precipitation mix containing a CAT or Luc reporter gene and a β-galactosidase expression plasmid (pCMV-β-gal) as an internal control for normalization of transfection efficiency. The medium was changed to phenol-red-free DMEM with 5% charcoal-stripped FCS 1 h before transfection. In each experiment, the total amount of transfected DNA per dish was maintained as a constant by addition of empty expression vector (pSG5 or pVP16, as appropriate). […] The cells were then harvested and whole cell extracts were used for CAT or Luc assay. The CAT activity was quantitated with a PhosphorImager (Molecular Dynamics). The Luc assay was determined using a Dual-Luciferase Reporter Assay System (Promega) and luminometer.

AR, sequence (P10275 whole entry): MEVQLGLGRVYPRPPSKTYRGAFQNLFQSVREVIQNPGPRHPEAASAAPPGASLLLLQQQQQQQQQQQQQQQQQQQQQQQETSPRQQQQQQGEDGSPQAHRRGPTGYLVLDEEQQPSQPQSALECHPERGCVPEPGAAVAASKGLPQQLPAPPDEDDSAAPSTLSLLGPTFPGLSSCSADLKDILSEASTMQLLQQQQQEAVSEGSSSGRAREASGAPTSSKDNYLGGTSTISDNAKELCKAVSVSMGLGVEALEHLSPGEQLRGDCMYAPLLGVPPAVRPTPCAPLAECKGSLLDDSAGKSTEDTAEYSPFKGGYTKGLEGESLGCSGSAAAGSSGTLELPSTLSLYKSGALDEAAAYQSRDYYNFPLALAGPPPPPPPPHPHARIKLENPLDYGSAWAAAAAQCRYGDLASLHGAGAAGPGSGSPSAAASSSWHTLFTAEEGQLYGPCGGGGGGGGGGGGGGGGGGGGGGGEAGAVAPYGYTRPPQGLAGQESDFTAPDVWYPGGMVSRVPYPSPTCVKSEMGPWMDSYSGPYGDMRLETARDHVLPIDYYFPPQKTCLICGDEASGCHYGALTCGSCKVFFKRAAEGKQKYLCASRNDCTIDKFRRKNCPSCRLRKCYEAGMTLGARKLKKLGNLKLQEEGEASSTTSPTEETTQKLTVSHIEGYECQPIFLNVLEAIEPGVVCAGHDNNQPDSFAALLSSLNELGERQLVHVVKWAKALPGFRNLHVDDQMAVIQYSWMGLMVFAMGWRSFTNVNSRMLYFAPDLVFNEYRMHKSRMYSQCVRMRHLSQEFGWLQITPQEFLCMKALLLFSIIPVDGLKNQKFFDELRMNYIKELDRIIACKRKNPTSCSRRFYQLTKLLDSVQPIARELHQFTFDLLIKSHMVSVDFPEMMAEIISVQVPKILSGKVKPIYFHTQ

B1: C′-ARA54: C-terminal region (amino acids 361-474) of ARA54 (protein)
chain: RNEYLQADEANKRLLDQRYGKRVIQKALEEMESKEWLEKNSKSCPCCGTPIEKLDGCNKMTCTGCMQYFCWICMGSLSRANPYKHFNDPGSPCFNRLFYAVDVDDDIWEDEVED
modifications: Homo sapien
notes: C-terminal region (amino acids 361-474) of ARA54
DU145 cells, 1 nM DHT
  effect on ARA55-, ARA70-, Rb-, or SRC-1-enhanced AR transactivation: only marginal or slight suppressive effects
LNCaP, PC-3, DU145 cells, 1 nM DHT or 1 μM HF
  effect on DHT- or HF-mediated AR transcription activity: suppresses DHT- or HF-mediated AR transcription activity
